Reference: publication PMC3739435 (Peptides, 2013)
Square brackets hold non-standard residues; d marks the D form. Ends that are not written are not given here. * marks the point of attachment. Benzoyl(4-benzoyl) = O=C(c1ccccc1)c1ccc(C(=O)*)cc1; Bpa = N[C@@H](Cc1ccc(C(=O)c2ccccc2)cc1)C(=O)O; Phe(NO2) = nitro-phenylalanine (NO2-Phe); Desaminotyrosyl = O=C(CCc1ccc(O)cc1)*; Nle = CCCC[C@H](N)C(=O)O

T1: hemagglutinin-tagged wild type human type 2 CCK receptor (human, UniProt P32239 1-447)
T1 sequence (looked up): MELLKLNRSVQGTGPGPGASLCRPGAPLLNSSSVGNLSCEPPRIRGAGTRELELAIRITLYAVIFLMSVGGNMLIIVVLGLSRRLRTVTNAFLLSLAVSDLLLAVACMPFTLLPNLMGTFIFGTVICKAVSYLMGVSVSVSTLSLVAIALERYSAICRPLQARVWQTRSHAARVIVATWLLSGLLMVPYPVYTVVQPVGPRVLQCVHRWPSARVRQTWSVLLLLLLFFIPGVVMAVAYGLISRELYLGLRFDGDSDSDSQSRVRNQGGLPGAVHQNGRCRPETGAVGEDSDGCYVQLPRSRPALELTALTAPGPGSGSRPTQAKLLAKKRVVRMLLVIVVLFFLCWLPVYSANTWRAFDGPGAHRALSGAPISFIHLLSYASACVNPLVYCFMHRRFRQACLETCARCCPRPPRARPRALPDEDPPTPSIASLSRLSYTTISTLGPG


Experiments:
[1] = molecular target: T1, hemagglutinin-tagged wild type human …; test: cell-based or functional assay
[2] = molecular target: T1, hemagglutinin-tagged wild type human …; test: radioligand binding

intracellular calcium responses in CHO-CCK2R cells, EC50 [1] | IC50 [2] | Binder
> 1000 nM | > 1000 nM | [Desaminotyrosyl]GDY[Nle]GW[Nle][Bpa]F (ends and bridges not checked) [(des-amino-Tyr)-Gly-[(Nle28,Nle31,Bpa32)CCK-26-33]]
 | > 1000 nM | [Desaminotyrosyl]GDY[Nle]GWK(Benzoyl(4-benzoyl))DF (ends and bridges not checked) [(des-amino-Tyr)-Gly-[(Nle28,(BzBz)Lys31)CCK-26-33]]
> 1000 nM |  | [Desaminotyrosyl]G[Phe(NO2)]Y[Nle]GW[Nle]DF (ends and bridges not checked) [(des-amino-Tyr)-Gly-[(NO2-Phe26,Nle28,Nle31)CCK-26-33]]
 | > 1000 nM | [Desaminotyrosyl]GDY[Nle]G[Bpa][Nle]DF (ends and bridges not checked) [(des-amino-Tyr)-Gly-[(Nle28,Bpa30,Nle31)CCK-26-33]]
